Consider one substance from patent publication US20060105398A1, “Methods of identifying compounds that modulate igg mediated mast cell activation” (Rigel Pharmaceuticals, Inc, priority 2002, published 2006).

For this series, the system named is FcγRI activation of cultured human mast cells (CHMC). The experiment in a line: Priming of mast cells, tryptase activity in supernatant after Fcγ activation with IgG and anti-IgG. The format is cell-based. Conditions: IL-4 absent or present in priming solution; IgE primed mast cells; human IgG3 and rabbit anti-human IgG (FIG. 1A, 1B). The procedure: Priming of mast cells is carried out by seeding the cells on Day 0 at 3.5×10^5 cells/mL in culture media plus SCF (200 ng/mL), IL-6 (200 ng/mL), IL-4 ([…]), IgE (200 ng/mL), and IgG3 (200 ng/mL).
Activation or stimulation of cells is done on Day 3 by centrifuging the cells down and resupending them at 1.5×10^3 cells/mL in modified tyrodes (MT: 137 mM NaCl, 2.7 mM KCI, 1.8 mM CaCl2, 5.6 mM glucose, 20 mM Hepes (pH 7.4), 0.1% Bovine Serum Albumin (Sigma A4503)), with or without rabbit anti-human IgG (200 ng/mL final conc.), for 30 minutes at 37° C. (see Demo, S. D., Cytometry. 36(4):340-348 (1999)).
Degranulation is measured by centrifuging down the sample, and harvesting the supernatant and measuring tryptase activity. The tryptase assays are performed under standard conditions (25 uL supernatant added to 100 uL of 10 uM tryptase substrate [20 mM stock solution of Z-Ala-Lys-Arg-AMC2TFA (Enzyme systems Products, Catalog No. AMC-246) diluted 1:2000 in tryptase assay buffer [[…] (pH 7.5), 10% w/v Glycerol, […], 0.01% NaN3] for 30 min at 37° C. The reactions are read in plate reader (Wallac, Victor 2, 1420 Multilabel Counter).

For the substance “IL-4: cytokine added to the priming solution (20 ng/mL)”, the “effect on activation (tryptase activity in the supernatant)” value is recorded as “did not appear to substantially affect activation”.
